Patent US20140179604A1 (U S A REPRESENTED BY THE DEPARTMENT OF VETERANS AFFAIRS, published 2014)
Values belong to the molecule of their own block, whether it stands above or below them. Non-standard residues stand in square brackets, D forms with d. No end group written: not given here. *: point of attachment. Desaminotyrosyl = O=C(CCc1ccc(O)cc1)*; NMeY = CN[C@@H](Cc1ccc(O)cc1)C(=O)O; Nle = CCCC[C@H](N)C(=O)O; Orn = NCCC[C@H](N)C(=O)O; Abu = CC[C@H](N)C(=O)O; Ava = NCCCCC(=O)O

Key:
[1] = molecular target: T1, GHRH receptor (membrane receptors of human anterior pituitary cells) (human) (UniProt Q02643); assay: competition with 125I-JV-1-42, human pituitary membranes
T1 sequence (looked up): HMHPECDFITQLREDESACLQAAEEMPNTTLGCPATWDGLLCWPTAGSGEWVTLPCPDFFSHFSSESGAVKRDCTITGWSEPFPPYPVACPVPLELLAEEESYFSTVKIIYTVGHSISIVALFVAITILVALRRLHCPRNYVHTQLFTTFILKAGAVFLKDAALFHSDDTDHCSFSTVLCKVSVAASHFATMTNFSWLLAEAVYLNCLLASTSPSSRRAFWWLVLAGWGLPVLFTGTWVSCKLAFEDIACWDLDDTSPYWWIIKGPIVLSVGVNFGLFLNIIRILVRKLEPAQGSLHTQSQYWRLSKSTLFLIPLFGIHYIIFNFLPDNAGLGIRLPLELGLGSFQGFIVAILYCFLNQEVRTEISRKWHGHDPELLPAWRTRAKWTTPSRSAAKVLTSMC

[2] = molecular target: T1, GHRH receptor (membrane receptors of human anterior pituitary cells) (human); assay: competition with 125I-[His1,Nle27]hGHRH(1-32)NH2, human pituitary membranes

Molecule: P-27404 [N-Me-Tyr^1, D-Ala^2, Fpa5^6, Orn^12, Abu^15, Orn^21, Nle^27, Asp^28]hGHRH(1-29)NH-CH3 (peptide)
IC50 [1]: 0.87 nM
Relative affinity (Binding potency) vs JI-38 [1]: 5 JI-38 = 1
IC50 [2]: 1.12 nM
Relative affinity (Binding potency) compared to JI-38 [2]: 2.45 JI-38 = 1
Relative affinity (Binding potency) compared to hGHRH(1-29) (hGHRH(1-29)NH2 = 1) [2]: 6.83

B1: P-27413 [Dat^1, Gln^8, His^11, Orn^12, Abu^15, His^20, Orn^21, Nle^27, Asp^28]hGHRH(1-29)NH-CH3 (peptide, from a related filing)
peptide: [Desaminotyrosyl]ADAIFTQSYH[Orn]VL[Abu]QLSAH[Orn]LLQDI[Nle]DR-NHMe
SMILES: CCCC[C@H](NC(=O)[C@@H](NC(=O)[C@H](CC(=O)O)NC(=O)[C@H](CCC(N)=O)NC(=O)[C@H](CC(C)C)NC(=O)[C@H](CC(C)C)NC(=O)[C@H](CCCN)NC(=O)[C@H](Cc1c[nH]cn1)NC(=O)[C@H](C)NC(=O)[C@H](CO)NC(=O)[C@H](CC(C)C)NC(=O)[C@H](CCC(N)=O)NC(=O)[C@H](CC)NC(=O)[C@H](CC(C)C)NC(=O)[C@@H](NC(=O)[C@H](CCCN)NC(=O)[C@H](Cc1c[nH]cn1)NC(=O)[C@H](Cc1ccc(O)cc1)NC(=O)[C@H](CO)NC(=O)[C@H](CCC(N)=O)NC(=O)[C@@H](NC(=O)[C@H](Cc1ccccc1)NC(=O)[C@@H](NC(=O)[C@H](C)NC(=O)[C@H](CC(=O)O)NC(=O)[C@H](C)NC(=O)CCc1ccc(O)cc1)[C@@H](C)CC)[C@@H](C)O)C(C)C)[C@@H](C)CC)C(=O)N[C@@H](CC(=O)O)C(=O)N[C@@H](CCCNC(=N)N)C(=O)NC
IC50 [1]: 2.45 nM
Relative affinity (Binding potency) vs JI-38 [1]: 1.78 JI-38 = 1

B4: P-27415 [N-Me-Tyr^1, Orn^12, Abu^15, Orn^21, Nle^27, Gab^30]hGHRH(1-30)NH-CH3 (peptide, from a related filing)
peptide: YADAIFTNSYRKVLGQLSARKLLQDIMSRQ
modifications: N-Me-Tyr^1; Orn^12; Abu^15; Orn^21; Nle^27; Gab^30 (in place of Gln^30); C-terminal -NH-CH3
IC50 [1]: 3.02 nM
Relative affinity (Binding potency) vs JI-38 [1]: 1.44 JI-38 = 1

Molecule: [NMeY]ADAIFTQSYR[Orn]VL[Abu]QLSAR[Orn]LLQDI[Nle]DR-NHMe (peptide, from a related filing) [P-27406 [N-Me-Tyr^1, Gln^8, Orn^12, Abu^15, Orn^21, Nle^27, Asp^28]hGHRH(1-29)NH-CH3]
IC50 [1]: 0.3 nM
Relative affinity (Binding potency) vs JI-38 [1]: 14.5 JI-38 = 1
IC50 [2]: 0.93 nM
Relative affinity (Binding potency) compared to JI-38 [2]: 2.95 JI-38 = 1
Relative affinity (Binding potency) compared to hGHRH(1-29) (hGHRH(1-29)NH2 = 1) [2]: 8.22

Further molecules by falling IC50 [1], results first:

IC50 [1]: 3.8 nM
Relative affinity (Binding potency) vs JI-38 [1]: 1.14 JI-38 = 1
B3: P-22325 [N-Me-Tyr^1, Gln^8, Orn^12, Abu^15, Orn^21, Nle^27, Asp^28, Apa^30]hGHRH(1-30)NH2 (peptide, from a related filing)
peptide: [NMeY]ADAIFTQSYR[Orn]VL[Abu]QLSAR[Orn]LLQDI[Nle]DR[Ava]-NH2
modifications: N-terminus assumed
SMILES: CCCC[C@H](NC(=O)[C@@H](NC(=O)[C@H](CC(=O)O)NC(=O)[C@H](CCC(N)=O)NC(=O)[C@H](CC(C)C)NC(=O)[C@H](CC(C)C)NC(=O)[C@H](CCCN)NC(=O)[C@H](CCCNC(=N)N)NC(=O)[C@H](C)NC(=O)[C@H](CO)NC(=O)[C@H](CC(C)C)NC(=O)[C@H](CCC(N)=O)NC(=O)[C@H](CC)NC(=O)[C@H](CC(C)C)NC(=O)[C@@H](NC(=O)[C@H](CCCN)NC(=O)[C@H](CCCNC(=N)N)NC(=O)[C@H](Cc1ccc(O)cc1)NC(=O)[C@H](CO)NC(=O)[C@H](CCC(N)=O)NC(=O)[C@@H](NC(=O)[C@H](Cc1ccccc1)NC(=O)[C@@H](NC(=O)[C@H](C)NC(=O)[C@H](CC(=O)O)NC(=O)[C@H](C)NC(=O)[C@H](Cc1ccc(O)cc1)NC)[C@@H](C)CC)[C@@H](C)O)C(C)C)[C@@H](C)CC)C(=O)N[C@@H](CC(=O)O)C(=O)N[C@@H](CCCNC(=N)N)C(=O)NCCCCC(N)=O

IC50 [1]: 1.18 nM
Relative affinity (Binding potency) vs JI-38 [1]: 3.67 JI-38 = 1
B2: P-25503 [N-Me-Tyr^1, Abu^2, Orn^12, Abu^15, Orn^21, Nle^27, Gab^30]hGHRH(1-30)NH2 (peptide, from a related filing)
peptide: B4 peptide
modifications: N-Me-Tyr^1; Abu^2; Orn^12; Abu^15; Orn^21; Nle^27; Gab^30 (in place of Gln^30); C-terminal -NH2
